This data set in a line: soluble on expression in E. coli; label from the status in PepcDB or PDB records.
For the sequence “MGDRGYGGSRSYGGSSGGGSRGGYGGGGRGGGGGGYSGGRGGGYGGGGGGGYGGGGYGGGGRGGGRGGSNGSAGGRLRDVDWSAENLTPIEKDFYHENAAVSRREQYEIDQWVSANQVTLEGRGVPRPVFEFNEAPLPGQIHELLYGKFQKPTVIQSISWPIAMSGRDIISIAKTGSGKTLAFMLPALVHITKQAHRQRGEGPAVLVLLPTRELAQQVQEVSIDFCHSLGLKMTCLFGGASKGPQARDLERGVDIVVATPGRLLDFLDNGTTNMKKCSYLVLDEADRMLDMGFEPQIKKIIGQIRPDRQTLMFSATWPKEVRALASDFQKDAAFLNVGSLELAANHNITQVVDILEEHAKQAKLMELLNHIMNQKECKTIIFVETKRKADELTRAMRRDGWPTLCIHGDKNQGERDWVLQEFKAGKTPIMLATDVAARGLDVDDIKFVINYDYPNNSEDYVHRIGRTGRSDKKGTAYTFFTHTNASKAKDLLKVLDEAKQTVPQALRDMANRSYGGSNSRGRYGGGGFQKRGYGGNDNFAPKRPRYDNGGYGGGSGGGGRW”, the “soluble on expression in E. coli” value is “not soluble”.
Consider “MSTAKAPTLPASIFRAYDIRGVVGDTLTAETAYWIGRAIGSESLARGEPCVAVGRDGRLSGPELVKQLIQGLVDCGCQVSDVGMVPTPVLYYAANVLEGKSGVMLTGSHNPPDYNGFKIVVAGETLANEQIQALRERIEKNDLASGVGSVEQVDILPRYFKQIRDDIAMAKPMKVVVDCGNGVAGVIAPQLIEALGCSVIPLYCEVDGNFPNHHPDPGKPENLKDLIAKVKAENADLGLAFDGDGDRVGVVTNTGTIIYPDRLLMLFAKDVVSRNPGADIIFDVKCTRRLIALISGYGGRPVMWKTGHSLIKKKMKETGALLAGEMSGHVFFKERWFGFDDGIYSAARLLEILSQDQRDSEHVFSAFPSDISTPEINITVTEDSKFAIIEALQRDAQWGEGNITTLDGVRVDYPKGWGLVRASNTTPVLVLRFEADTEEELERIKTVFRNQLKAVDSSLPVPF”, for which the “soluble on expression in E. coli” value was “soluble”.
With “SEDHQHVPIDIQTSKLLDWLVDRRHCSLKWQSLVLTIREKINAAIQDMPESEEIAQLLSGSYIHYFHCLRILDLLKGTEASTKNIFGRYSSQRMKDWQEIIALYEKDNTYLVELSSLLVRNVNYEIPSLKKQIAKCQQLQQEYSRKEEECQAGAAEMREQFYHSCKQYGITGENVRGELLALVKDLPSQLAEIGAAAQQSLGEAIDVYQASVGFVCESPTEQVLPMLRFVQKRGNSTVYEWRTGTEPSVVERPHLEELPEQVAEDAIDWGDFGVEAVSEGTDSGISAEAAGIDWGIFPESDSKDPGGDGIDWGDDAVALQITVLEAGTQAPEGVARGPDALTLLEYTETRNQFLDELMELEIFLAQRAVELSEEADVLSVSQFQLAPAILQGQTKEKMVTMVSVLEDLIGKLTSLQLQHLFMILASPRYVDRVTEFLQQKLKQSQLLALKKELMVQKQQEALEEQAALEPKLDLLLEKTKELQKLIEADISKRYSGRPVNLMGTSL”, the “soluble on expression in E. coli” value is “soluble”.
As to “MGSDKIHHHHHHMNSILINHKAKADISISCFGEVLWDCFPDGKRVGGAPLNVCVRLNALGIKGSMISAVGDDPLGHELVSFIDDRGVNRDCIAIDPVKSTSTVQVTLDKNGSASYDIVADTAWDNIALTEDIIEQVNRTDVLVFGSLIGRNDVSLNTLTALVKLASFSVFDVNLRAPHYQIDSVINLMKKADFIKLNDDELYEIAKAMGSPFHSLEQNLDFVAIQTNTDYLCVTKGSHGALLSIGGQKYYNSGYLVNVVDTVGAGDSFLGSLLYQLCSDSNPQYAIDFACAVGAMVAESHGATPMITLNEIQAFMHPV”, the “soluble on expression in E. coli” value is reported as “not soluble”.
Turning to “MGEKRKTRQAEVNIGMVGHVDHGKTTLTKALTGVWTDTHSEELRRGITIKIGFADAEIRRCSNCGRYSTSPICPYCGHETEFIRRVSFIDSPGHEALMTTMLAGASLMDGAILVIAANEPCPRPQTREHLMALQIIGQKNIIIAQNKIELVDKEKALENYRQIKEFIKGTVAENAPIIPISALHGANIDVLVKAIEEFIPTPKRDSNKPPKMLVLRSFDVNKPGTPPEKLVGGVLDGSIVQGKLKVGDEIEIRPGVPYEEHGRIKYEPITTEIVSLQAGGQFVEEAYPGGLVGIGTKLDPYLTKGDLMAGNVVGKPGKLPPVWTDLRLEVHLLERVVGTEQELNVEPIKRKEVLLLNVGTARTMGLVTALGKDEIELKLQIPVCAEPGERVAISRQIGSRWRLIGYGIIKELEHHHHHH”, the “soluble on expression in E. coli” value is “soluble”.
For “PNSPINKLVLNDIGPQIPIHGLRRIAKYAGKAPDFKSLEEAKQHFKASYADFGITNEKQWDIFTKNSVEQRGPNLYVTKMDPAIKKSKSILQIISEFFRHPHKALEGIFYDINLWSIWKQIKCPVIVIHGVNSDILTSEIITQMKKTHALTEVYEVENAGHAPALLDLTVHQRIEDWLATH”, the “soluble on expression in E. coli” value was “not soluble”.
The same measure for “MSLNKVSLAQIAKAAGVSKMTASRVLRDEGGFSESTRARVMAEIDRLGYVPNRLATVFAGDQRSTFVGVSIPELGNEIFAQVLEGIDRKLGAFGHQTVLGMTEHALEQEEKWLETVLSWQPAGLIVTGRSHTPKSIQLLSGAGIPLVEIWDFNSSPLDMSVGLNHFDSGYSMGRYLTGLGYRQFGYVGTSHDTANAASARLAGYAKVIGDSGGSLKKQLLLKDAPGFYTGYYGTEQLLAANSDVEVIYYQNDNMAVGGLNYCQKRGLSIPGDIGIAGWGDLPIASILPYRLTSTAVPHLRIGMIAAEMVLSQINGEARRRSQDVGFTLIPGSTVRSQLEEGHHHHHH”: “soluble”; for “SAGRGKLIAVIGDEDTVTGFLLGGIGELNKNRHPNFLVVEKDTTINEIEDTFRQFLNRDDIGIILINQYIAEMVRHALDAHQRSIPAVLEIPSKEHPYDAAKDSILRRAKGMFTAEDLR”: “soluble”; for “MWKWETENDAKGVVVIAHNILEHTGRYAYVITMLRRNGYHVIMGDLPGQGQTSRAQKGQIDDFNTYHENILEWIKIANEYKIPTFVLGVGLGGLIILNLLEKTELPIEGILLFSPMLELKRDYKGRKNKLISNVGKISKDTRFKVGITPQDLTRNDEIIEETANDGLMLKKVTYSWYNLINEKMKETMDHIRDIKPISALIMYGTNDKILETQSINEMKDKLKSKEMYFKVWDGLYHEIHNEPERDLVMRYVLSFLNNSVNTMGFIVNEEEIEDI”: “not soluble”.
“MCEATYGGASPQIRRQRFVILGMSDDPHPFFPPAAMTAIASGKIFSGGKRHHEIVRGLLPADAEWIDITVPLDDVFARYREYEEIVVFASGDPLFFGFANTVMNRLPDAVVTVYPTFNSLQMLAHALRMPYHDMRIVSLTGRPWHEFDRALIERAEKIGILTDHEHTPSAIAMRMLDYGYEDYTMSVGTRMGNPQEQCLDTFSLREAADRDFERPNCVILSATRPFVCSRAPLGLSESAFMPLNGRTKMITKMPFRLVSLSCLELHRASSFWDIGFCTGSVSIEAKLNFPHLHITAFEIRPEGAELMPVNSRRFGAPGIAYRIGDFMEEDISSLAPPDAVFIGGHGGRLVEMIAKVHSVMTKGGLLVFNSVSEESRHLFLTGIEACGMELLSSIRLTADGNNPIDILQARKKE”: the “soluble on expression in E. coli” value is given as “not soluble”.
As for “GAGNYQLAVSTLAKVWKQLHIPDVYDVGAMYFIKTFLHFGVSLLSAGHAWTNPQSFLDNAPLRQTLGKMMPFDGIEPSIASGALQALALTASCYTTGMSVTFFQGEESLGEWTRYQRLGVRERIGLDHLMATAAIPLIFPSVRIGEKFYCDGAVRQLSPLSPALH”, the “soluble on expression in E. coli” value is recorded as “not soluble”.
As to “TVVNDPSCESVVTTPQHSLRDANSPAGLLSIAEETLAEFLSKATGTAVDWVQMPGMKPGPDSVGIFAISQRCNGVAARACGLVSLEPMKIAEILKDRPSWFRDCRSLEVFTMFPAGNGGTIELVYMQTYAPTTLAPARDFWTLRYTTSLDNGSFVVCERSLSGSGAGPNAASASQFVRAEMLSSGYLIRPCDGGGSIIHIVDHLNLEAWSVPDVLRPLYESSKVVAQKMTISALRYIRQLAQESNGEVVYGLGRQPAVLRTFSQRLSRGFNDAVNGFGDDGWSTMHCDGAEDIIVAINSTKHLTNISNSV”, the “soluble on expression in E. coli” value is on record as “soluble”.
The same measure for “SLKAIKNGTILTGTGETIKQGTLLIQDGKVLEVGQRVDTPANAKLIDATGKYVTPGLIDVHTHIGVFSEGLGRTGHDFNETTAAATPYIRAIDGIYPFDQGFEDARQSGVTTVQIMPGSANVIGGEMVTVKTAGTVVDEMIVRAPSGMKAAFGENPKNVHGGKGKLPATRMGVAALFRQQLYQAQDYLKRFEKGELEKRDLGMEQLAKVLRKEIPLRVHAHRADDIATVLRMVDEFDLEATIEHCTEGHLIADHIAKYNVKVSVGPTMTSRTKQELVNKGWHTLIELEKHGIPFSITTDHPVVTINHLVTSAIQAVKAGLSEQSAFQAITLRAAEHIGVEQQVGSLEKGKDGDFVIWSDHPFTATAQVEATYINGKCVTGSHC”: “not soluble”.
“MSLSLVIAAGTILGACGNSEKSSGSGEGKNKFSVAMVTDVGGVDDKSFNQSAWEGIQAFGKENGLKKGKNGYDYLQSKSDADYTTNLNKLARENFDLIYGVGYLMEDSISEIADQRKNTNFAIIDAVVDKDNVASITFKEQEGSFLVGVAAALSSKSGKIGFVGGMESELIKKFEVGFRAGVQAVNPKAVVEVKYAGGFDKADVGKATAESMYKSGVDVIYHSAGATGTGVFTEAKNLKKEDPKRDVWVIGVDKDQYAEGQVEGTDDNVTLTSMVKKVDTVVEDVTKKASDGKFPGGETLTYGLDQDGVGISPSKQNLSDDVIKAVDKWKKKIIDGLEIPATEKELKTFKAEEGGSHHHHHH”: the “soluble on expression in E. coli” value is listed as “soluble”.
Take “MIGYQIYVRSFRDGNLDGVGDFRGLKNAVSYLKELGIDFVWLMPVFSSISFHGYDVVDFYSFKAEYGSEREFKEMIEAFHDSGIKVVLDLPIHHTGFLHTWFQKALKGDPHYRDYYVWANKETDLDERREWDGEKIWHPLEDGRFYRGLFGPFSPDLNYDNPQVFDEMKRLVLHLLDMGVDGFRFDAAKHMRDTIEQNVRFWKYFLSDLKGIFLAEIWAEARMVDEHGRIFGYMLNFDTSHCIKEAVWKENTRVLIESIERAVIAKDYLPVNFTSNHDMSRLASFEGGFSKEKIKLSISILFTLPGVPLVFYGDELGMKGVYQKPNTEVVLDPFPWNESMCVEGQTFWKWPAYNGPFSGISVEYQKRDPDSILSHTLGWTRFRKENQWIDRAKLEFLCKEDKFLVYRLYDDQHSLKVFHNLSGEEVVFEGVKMKPYKTEVV”: the “soluble on expression in E. coli” value was “soluble”.
Then “MSKKIVLALGGNALGDDLAGQMKAVKITSQAIVDLIAQGHEVIVTHGNGPQVGMINQAFEAAAKTEAHSPMLPMSVCVALSQGYIGYDLQNALREELLSRGINKPVATLVTQVEVDANDPAFLNPTKPIGSFFTEQEAEQLTKQGYTLKEDAGRGYRRVVASPKPVDIIEKETVKALVDAGQVVITVGGGGIPVIREGNHLRGASAVIDKDWASARLAEMIDADMLIILTAVEKVAINFGKENEQWLDRLSLSDAERFIEEGHFAKGSMLPKVEAAASFARSRAGREALITVLSKAKEGIEGKTGTVICQ”, with “not soluble”; and “MADNLPSDFDVIVIGTGLPESIIAAACSRSGQRVLHVDSRSYYGGNWASFSFSGLLSWLKEYQENNDVVTENSMWQEQILENEEAIPLSSKDKTIQHVEVFCYASQDLHKDVEEAGALQKNHASVTSAQSAEAAEAAETSCLPTAVEPLSMGSCEIPAEQSQCPGPESSPEVNDAEATGKKENSDAKSSTEEPSENVPKVQDNTETPKKNRITYSQIIKEGRRFNIDLVSKLLYSRGLLIDLLIKSNVSRYAEFKNITRILAFREGTVEQVPCSRADVFNSKQLTMVEKRMLMKFLTFCVEYEEHPDEYRAYEGTTFSEYLKTQKLTPNLQYFVLHSIAMTSETTSCTVDGLKATKKFLQCLGRYGNTPFLFPLYGQGELPQCFCRMCAVFGGIYCLRHSVQCLVVDKESRKCKAVIDQFGQRIISKHFIIEDSYLSENTCSRVQYRQISRAVLITDGSVLKTDADQQVSILTVPAEEPGSFAVRVIELCSSTMTCMKGTYLVHLTCMSSKTAREDLERVVQKLFTPYTEIEAENEQVEKPRLLWALYFNMRDSSDISRDCYNDLPSNVYVCSGPDSGLGNDNAVKQAETLFQQICPNEDFCPAPPNPEDIVLDGDSSQQEVPESSVTPETNSETPKESTVLGNPEEPSE”, with “soluble”.

Values taken from the DeepSol protein solubility set.
